Measured values published in US20090175786A1.
Where no end group is shown, it is not given here.

Molecular target: T1, neuromedin-B preferring receptor (NMB-R) of C6 rodent glioblastoma cells (rodent), P24053
T1 chain: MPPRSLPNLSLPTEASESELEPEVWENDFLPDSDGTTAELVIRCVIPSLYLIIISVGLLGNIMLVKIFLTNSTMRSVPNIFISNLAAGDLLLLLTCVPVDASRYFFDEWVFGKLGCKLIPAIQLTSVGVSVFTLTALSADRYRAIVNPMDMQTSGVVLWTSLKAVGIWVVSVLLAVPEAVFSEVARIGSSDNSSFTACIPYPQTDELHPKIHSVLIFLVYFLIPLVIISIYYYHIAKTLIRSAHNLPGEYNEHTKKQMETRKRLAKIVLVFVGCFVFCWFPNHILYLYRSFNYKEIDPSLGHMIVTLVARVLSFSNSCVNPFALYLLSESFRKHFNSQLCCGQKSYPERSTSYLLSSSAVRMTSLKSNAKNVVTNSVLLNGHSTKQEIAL
Test: 125I-NMB competition, C6 cells

For EQRYGNQWAVGHLM-NH2 (also: name truncated at 'p…', N-terminal modification unresolved) [p…-NH2], the IC50 was 3.36 nM.
